Results published in US20250101076A1.

Target: extracellular domain of the growth hormone receptor (human) (UniProt P10912)
Assay: competition ELISA, plate coated with GHR extracellular domain, inhibition of biotin-hGH binding

Chain of UniProt P10912 (P10912 19-264): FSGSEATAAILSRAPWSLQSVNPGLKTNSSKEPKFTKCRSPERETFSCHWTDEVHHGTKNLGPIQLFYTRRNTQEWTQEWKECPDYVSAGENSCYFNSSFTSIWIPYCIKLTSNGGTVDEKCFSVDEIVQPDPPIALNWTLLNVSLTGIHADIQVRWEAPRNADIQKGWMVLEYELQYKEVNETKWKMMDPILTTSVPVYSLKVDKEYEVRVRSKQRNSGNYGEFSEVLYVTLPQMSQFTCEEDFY

- IC50: 137 nM
Substance: pegvisomant (ligand)
